This data set can be described thus: yeast display, Sf9 membrane polyspecificity reagent, FACS + sequencing; frameworks hold sequencing errors. In a few lines:
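Genes from sorted yeast were amplified by colony PCR, read by MiSeq 2 × 250 sequencing and filtered on CDR length. These cells carried a synthetic nanobody library in Saccharomyces cerevisiae BJ5465 and were sorted by FACS into low and high (top ~1%) gates on anti-HA and streptavidin fluorescence. Polyreactivity is labelled according to the gate of origin.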
Take “QVQLVESGGGLVQAGGSLRLSCAASGFTFGLYAMGWYRQAPGKERELVAAISSDGSTYYTDSVKGRFTISRDNAKNTVYLQMNSLKPEDTSVYYCNRDYPQSLPYYTNTILYGYWGQGTQVTVSS”: the “polyreactivity (PSR sort gate)” value is recorded as “low polyreactivity”.
As for “QVQLVESGGGLVQAGGSLRLSCAASGFTFGLYTMGWYRQAPGKERELVAAITSSGARTYYADSVKGRFTISRDNAKNTVNLQMNSLKPEDTAVYYCNAGKRGSTYYYWGQGTQVTVSS”, the entry is “high polyreactivity”; as for “QVQLVESGGGLVQAGGSLRLSCAASGFTFGNSALGWYRLAAGKERELVAAISRSGGRTYYADSVKGSFTISRDNAKNTVYLQMNSLKPEVTAVYYCARLLLSPQYGYWGQGTQVTVSS”, “high polyreactivity”.
Consider “QVQLVESGGGLVQAGGSLRLSCAASGFTFGNYAMYWVRQAPGKERELVAAINYSGGSTYYADSVKGRFTISRDNAKNTVYLQMNSLKPEDTAVYYCAADTYPASYDYWGQGTQVTVSS”, for which the “polyreactivity (PSR sort gate)” value was “high polyreactivity”.
As for “QVQLVESGGGLVQAGGSLRLSCAASGFTFGPYAMGWYRQAPGKERELVAAIRGSGSSTYYADSVKGRFTISRDNAKNTVYLQMNSLKPEDTAVYYCAAKRRYGTDGYWGQGTQVTVSS”, the entry is “high polyreactivity”; as for “QVQLVESGGGLVQAGGSLRLSCAASGFTFGPYDMGWYRQAPGKERELVAAITDSSGSTHYADSVKGRFTISRDNAKNTVYLQMNSLKPEDTAVYYCAAVVYYTFDYWGQGTQVTVSS”, “low polyreactivity”.
Regarding “QVQLVESGGGLVQAGGSLRLSCAASGFTFGPYDMGWYRQAPGKERELVAVIIGGDSTNYADSVKGRFTISRDNAKYTVYLQMNSLKPEDTAVYYCAADYIDRVGWMDYWGQGTQVTVSS”, the “polyreactivity (PSR sort gate)” value is given as “low polyreactivity”.
On to “QVQLVESGGGLVQAGGSLRLSCAASGFTFGRNAMGWYRQAPGKERELVARITTGGSTNYADSVKGRFTISRDNAKNTVYLQMNSLKPEDTAVYYCAATYRSLALFWTYGYWGQGTQVTVSS”, for which the “polyreactivity (PSR sort gate)” value is “low polyreactivity”.
As for “QVQLVESGGGLVQAGGSLRLSCAASGFTFGRNTMGWYRQAPGKERELVAAITRRGGTTHYADSVKGRFTISRDNAKNTVYLQMNSLKPEDTAVYYCAADPFNSYYGRYDYWGQGTQVTVSS”, the entry is “high polyreactivity”; as for “QVQLVESGGGLVQAGGSLRLSCAASGFTFGRYAMGWYRQAPGKERELVAAISRGGSTYYADSVKGRFTISRDNAKNTVYLQMNSLKPEDTAVYYCNKGDSKEYDVYYWGQGTQVTVSS”, “low polyreactivity”.
As to “QVQLVESGGGLVQAGGSLRLSCAASGFTFGRYAMGWYRQAPGKERELVAAISWTGGSTYYADSVKGRFTISRDNAKNTVYLQMNSLKPEDTAVYYCAAVGRSKRDGYWGQGTQVTVSS”, the “polyreactivity (PSR sort gate)” value is reported as “high polyreactivity”.
As for “QVQLVESGGGLVQAGGSLRLSCAASGFTFGRYGMGWYRQAPGKDREFVAAITGRTGTTYYADSVKGRFTISRDNAKNTVYLQMNSLKPEDTAVYYCAARGQYRSSRYPYYHWGQGTQVTVSS”, the entry is “high polyreactivity”; as for “QVQLVESGGGLVQAGGSLRLSCAASGFTFGRYVMGWYRQAPGKGRELVAAITSSGSRTYYADSVKGRFTISRDNAKNTVYLQMNSLKPEHTAVYYCAARVYWTPVYYWGQGTQVTVSS”, “high polyreactivity”.
In the case of “QVQLVESGGGLVQAGGSLRLSCAASGFTFGSNAMGWYRQAPGKEREFVAAITYSGGGTYADSVKGRFTISRDNAKNTVDLQMNSLKPEDTAVYYCATDAYRWHYWNFGFGYWGQGTQVTVSS” it was “high polyreactivity”.
For the sequence “QVQLVESGGGLVQAGGSLRLSCAASGFTFGSNAMGWYRQAPGKERELVATISRRGGRTYYADSVKGRFTISRDNAKNTVYLQMNSLKPEDTAVYYCAAYLRPGGNYYWGQGTQVTVSS”, the “polyreactivity (PSR sort gate)” value is “high polyreactivity”.
As for “QVQLVESGGGLVQAGGSLRLSCAASGFTFGSNTMGWYRQAPGKERELVAAITTSGDSTYYADSVKGRFTISRDTAKNTVYLQMNSLKPEDTAVYYCAAERRYGRYYRLVRLLGQGTQVTVSS”, the entry is “high polyreactivity”.

Values taken from the nanobody polyreactivity screen of Harvey et al. (2022).
